Laboratory results: paper PMC2945410

What was measured:
[1] = system: O=[N+]([O-])c1ccc(OP(=O)(O)Oc2ccc([N+](=O)[O-])cc2)cc1; test: purified protein; assay type: biochemical, Shigella flexneri; conditions: standard assay: 50 mM HEPES pH 7.5, 2 mM MnCl2
[2] = system: O=[N+]([O-])c1ccc(OP(=O)(O)Oc2ccc([N+](=O)[O-])cc2)cc1; test: purified protein; assay type: biochemical, Thiobacillus denitrificans; conditions: standard assay: 50 mM HEPES pH 7.5, 2 mM MnCl2

Substance | Km [1] | Vmax [1] | kcat [1] | kcat/Km [1] | Km [2] | Vmax [2] | kcat [2] | kcat/Km [2]
SFV_3559 EAL domain (YhjK) (Shigella flexneri) | 14.1 ± 4.2 mM | 2.1 µmol/min/mg | 8 s⁻¹ | 600 M⁻¹ s⁻¹ |  |  |  | 
TBD1265 EAL domain (Thiobacillus denitrificans ATCC 25259) |  |  |  |  | 20.0 ± 1.3 mM | 0.1 µmol/min/mg | 0.06 s⁻¹ | 3 M⁻¹ s⁻¹
